Residue numbers refer to the chain shown, from its start. Names and notes keep the numbering of the source.
B1: C-terminal truncation MamM-CTD mutant (residues 215-293) (domain or fragment, Magnetospirillum gryphiswaldense MSR-1, UniProt V6F235 215-293, looked up)
chain: EAVQNRIVEAAERVPGVRGVIHLRARYVGQDIWADMIIGVDPENTVEQAHEICEAVQAAVCGKIRRIESLHVSAEAREI
notes: MamM, Magnetospirillum gryphiswaldense MSR-1; source: purified
B2: MamM-CTD (residues 215-318) (domain or fragment, Magnetospirillum gryphiswaldense MSR-1, UniProt V6F235 215-318, looked up)
chain: EAVQNRIVEAAERVPGVRGVIHLRARYVGQDIWADMIIGVDPENTVEQAHEICEAVQAAVCGKIRRIESLHVSAEAREIGDTTKPSFSDQPLSFDEVMLSKVDN
notes: MamM, cation diffusion facilitator of the magnetosome membrane, Magnetospirillum gryphiswaldense MSR-1; Uniformly 13C,15N labelled for the solid-state NMR; also called apo-MamM-CTD; source: purified
B3: MamM-CTD V260P (domain or fragment, Magnetospirillum gryphiswaldense MSR-1, UniProt V6F235 215-318, looked up)
chain: B2 chain with V46P
notes: MamM, Magnetospirillum gryphiswaldense MSR-1; also called V260P MamM-CTD mutant; recombinant MamM-CTD V260P; source: recombinant

Target: the molecule itself
Assay: SEC; Superdex200; apo proteins; elution volume against a calibration curve of marker proteins

Stoichiometry N, 2:
B1
B2
B3
